In paper PMC9464890, “Exosite binding modulates the specificity of the immunomodulatory enzyme ScpA, a C5a inactivating bacterial protease” (Computational and Structural Biotechnology Journal, 2022):
Changes are numbered by the printed parent chain.

Key:
ScpA_(S512A,D889A) = molecular target: T1, ScpA_(S512A,D889A) (Streptococcus pyogenes, UniProt P15926 31-1032, S512A | D889A); assay: SPR; BIAcore X100, NTA sensor chip with about 20-25 RU of immobilised His-tagged C5a form (ligand), ScpA form flowed as ligate at 30 uL/min, 25 °C, 10 mM Hepes-KOH pH 7.4, 150 mM NaCl, 0.005% Tween 20, 50 uM EDTA; global fit, 1:1 Langmuir model with drifting baseline; triplicate; conditions: both partners purified
T1 construct: Made by QuikChange II from pGEX ScpA(31-1032); also called D889A_(S512A); source: details in Supplemental Information SI1 and SI2
T1 sequence (looked up): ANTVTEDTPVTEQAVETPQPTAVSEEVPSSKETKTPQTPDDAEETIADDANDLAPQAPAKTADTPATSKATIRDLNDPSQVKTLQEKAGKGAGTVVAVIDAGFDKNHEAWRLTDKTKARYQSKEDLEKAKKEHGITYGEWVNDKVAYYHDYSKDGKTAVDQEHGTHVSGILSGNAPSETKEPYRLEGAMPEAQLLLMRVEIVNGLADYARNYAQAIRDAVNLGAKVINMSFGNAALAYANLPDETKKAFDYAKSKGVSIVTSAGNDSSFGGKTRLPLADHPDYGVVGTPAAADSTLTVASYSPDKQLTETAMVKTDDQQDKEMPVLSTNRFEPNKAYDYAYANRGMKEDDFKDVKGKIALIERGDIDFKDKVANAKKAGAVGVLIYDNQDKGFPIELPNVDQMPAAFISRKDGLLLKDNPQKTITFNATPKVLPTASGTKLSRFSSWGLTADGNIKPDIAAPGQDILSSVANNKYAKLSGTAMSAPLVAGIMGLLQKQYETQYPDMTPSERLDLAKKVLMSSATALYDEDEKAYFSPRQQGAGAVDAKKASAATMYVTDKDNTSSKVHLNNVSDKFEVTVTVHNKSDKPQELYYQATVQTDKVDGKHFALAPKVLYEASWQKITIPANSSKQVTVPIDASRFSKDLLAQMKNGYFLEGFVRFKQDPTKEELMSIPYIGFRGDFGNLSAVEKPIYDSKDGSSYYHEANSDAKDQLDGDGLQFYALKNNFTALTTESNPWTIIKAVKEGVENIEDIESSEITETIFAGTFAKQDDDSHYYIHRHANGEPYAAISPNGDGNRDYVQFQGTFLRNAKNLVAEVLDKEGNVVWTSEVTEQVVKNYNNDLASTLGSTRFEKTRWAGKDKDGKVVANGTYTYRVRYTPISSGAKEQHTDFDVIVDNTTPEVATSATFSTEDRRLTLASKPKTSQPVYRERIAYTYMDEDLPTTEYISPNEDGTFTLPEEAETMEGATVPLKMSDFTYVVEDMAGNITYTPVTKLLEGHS

ScpA_(S512A,E864A) = molecular target: T2, ScpA_(S512A,E864A) (Streptococcus pyogenes, UniProt P15926 31-1032, S512A | E864A); assay: as above; conditions: both partners purified
T2 construct: Made by QuikChange II from pGEX ScpA(31-1032); also called E864A_(S512A); source: details in Supplemental Information SI1 and SI2
T2 sequence (looked up): T1 sequence (looked up) with E834A, A859D

B1: Recombinant human C5a (rhC5a) (natural protein, UniProt P01031 678-751, looked up)
chain: TLQKKIEEIAAKYKHSVVKKCCYDGACVNNDETCEQRAARISLGPRCIKAFTECCVVASQLRANISHKDMQLGR
notes: human complement C5a anaphylatoxin, residues 1-74 (core 1-67 and tail 68-74); also called full length rhC5a; substrate; not shown: His6, N-terminal, kept
Kd (ScpA_(S512A,D889A)): 0.027 µM | koff (ScpA_(S512A,D889A)): 0.007 s⁻¹ | kon (ScpA_(S512A,D889A)): 263000 M⁻¹ s⁻¹ | Kd (ScpA_(S512A,E864A)): 0.025 µM | koff (ScpA_(S512A,E864A)): 0.0064 s⁻¹ | kon (ScpA_(S512A,E864A)): 260000 M⁻¹ s⁻¹
